In the assay the target is T1, His-tagged Arc, wild type, purified, Q9WV31.
T1 chain: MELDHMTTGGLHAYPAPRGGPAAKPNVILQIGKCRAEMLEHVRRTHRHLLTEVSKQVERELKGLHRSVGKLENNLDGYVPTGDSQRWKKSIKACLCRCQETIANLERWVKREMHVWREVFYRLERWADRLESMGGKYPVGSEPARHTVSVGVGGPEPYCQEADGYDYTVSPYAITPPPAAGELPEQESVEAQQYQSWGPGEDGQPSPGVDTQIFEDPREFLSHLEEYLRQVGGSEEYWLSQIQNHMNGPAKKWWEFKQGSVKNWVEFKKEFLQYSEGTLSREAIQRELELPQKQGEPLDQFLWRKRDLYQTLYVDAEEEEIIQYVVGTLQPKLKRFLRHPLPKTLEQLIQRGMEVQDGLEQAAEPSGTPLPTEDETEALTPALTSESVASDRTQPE
Description: SDS-PAGE under non-reducing conditions; purified His-Arc in SDS sample buffer without 2-mercaptoethanol, heated 5 min at 95°C; total protein stain and anti-Arc immunoblot. As to conditions: remark: other sources report otherwise.

B1: His-tagged Arc, wild type, purified, Q9WV31 1-396 (natural protein)
chain: MELDHMTTGGLHAYPAPRGGPAAKPNVILQIGKCRAEMLEHVRRTHRHLLTEVSKQVERELKGLHRSVGKLENNLDGYVPTGDSQRWKKSIKACLCRCQETIANLERWVKREMHVWREVFYRLERWADRLESMGGKYPVGSEPARHTVSVGVGGPEPYCQEADGYDYTVSPYAITPPPAAGELPEQESVEAQQYQSWGPGEDGQPSPGVDTQIFEDPREFLSHLEEYLRQVGGSEEYWLSQIQNHMNGPAKKWWEFKQGSVKNWVEFKKEFLQYSEGTLSREAIQRELELPQKQGEPLDQFLWRKRDLYQTLYVDAEEEEIIQYVVGTLQPKLKRFLRHPLPKTLEQLIQRGMEVQDGLEQAAEPSGTPLPTEDETEALTPALTSESVASDRTQPE
Usually stoichiometry N stands for the number of molecules, sites or subunits per partner or assembly. In the case of B1, the stoichiometry N came out at 2.
